# Target: CCR4-NOT complex (human (endogenous in human cell lines), UniProt A5YKK6 1-2376; Q9NZN8 1-540; O75175 1-753; Q9H9A5 1-744; Q9UKZ1 1-510)
# Assay: cell-based or functional assay
Renilla/Firefly luciferase ratio (RL/FL) of the 5BoxB reporter with tethered NHA-RNF219 [RL/FL ratio],Renilla/Firefly luciferase ratio (RL/FL) of the 5BoxB reporter with tethered NHA-RNF219-Id (lambdaN-HA tagged form of the allele) [RL/FL ratio],Binder
0.307,,lambdaN-peptide and HA-tagged RNF219 (NHA-RNF219) (natural protein) MAQTVQNVTLSLTLPITCHICLGKVRQPVICINNHVFCSICIDLWLKNNSQCPACRVPITPENPCKEIIGGTSESEPMLSHTVRKHLRKTRLELLHKEYEDEIDCLQKEVEELKSKNLSLESQIKTILDPLTLVQGNQNEDKHLVTDNPSKINPETVAEWKKKLRTANEIYEKVKDDVDKLKEANKKLKLENGGLVRENLRLKAEVDNRSPQKFGRFAVAALQSKVEQYERETNRLKKALERSDKYIEELESQVAQLKNSSEEKEAMNSICQTALSADGKGSKGSEEDVVSKNQGDSARKQPGSSTSSSSHLAKPSSSRLCDTSSARQESTSKADLNCSKNKDLYQEQVEVMLDVTDTSMDTYLEREWGNKPSDCVPYKDEELYDLPAPCTPLSLSCLQLSTPENRESSVVQAGGSKKHSNHLRKLVFDDFCDSSNVSNKDSSEDDISRSENEKKSECFSSPKTGFWDCCSTSYAQNLDFESSEGNTIANSVGEISSKLSEKSGLCLSKRLNSIRSFEMNRTRTSSEASMDAAYLDKISELDSMMSESDNSKSPCNNGFKSLDLDGLSKSSQGSEFLEEPDKLEEKTELNLSKGSLTNDQLENGSEWKPTSFFLLSPSDQEMNEDFSLHSSSCPVTNEIKPPSCLFQTEFSQGILLSSSHRLFEDQRFGSSLFKMSSEMHSLHNHLQSPWSTSFVPEKRNKNVNQSTKRKIQSSLSSASPSKATKS
,1.5,"RNF219-Id, CCR4-NOT complex interaction defective RNF219 allele (natural protein) MAQTVQNVTLSLTLPITCHICLGKVRQPVICINNHVFCSICIDLWLKNNSQCPACRVPITPENPCKEIIGGTSESEPMLSHTVRKHLRKTRLELLHKEYEDEIDCLQKEVEELKSKNLSLESQIKTILDPLTLVQGNQNEDKHLVTDNPSKINPETVAEWKKKLRTANEIYEKVKDDVDKLKEANKKLKLENGGLVRENLRLKAEVDNRSPQKFGRFAVAALQSKVEQYERETNRLKKALERSDKYIEELESQVAQLKNSSEEKEAMNSICQTALSADGKGSKGSEEDVVSKNQGDSARKQPGSSTSSSSHLAKPSSSRLCDTSSARQESTSKADLNCSKNKDLYQEQVEVMLDVTDTSMDTYLEREWGNKPSDCVPYKDEELYDLPAPCTPLSLSCLQLSTPENRESSVVQAGGSKKHSNHLRKLVFDDFCDSSNVSNKDSSEDDISRSENEKKSECFSSPKTGFWDCCSTSYAQNLDFESSEGNTIANSVGEISSKLSEKSGLCLSKRLNSIRSFEMNRTRTSSEASMDAAYLDKISVENSKSPCNNGFKSLDLDGLSKSSQGSEFLEEPDKLEEKTELNLSKGSLTNDQLENGSEWKPTSFFLLSPSDQEMNEDFSLHSSSCPVTNEIKPPSCLFQTEFSQGILLSSSHRLFEDQRFGSSLFKMSSEMHSLHNHLQSPWSTSFVPEKRNKNVNQSTKRKIQSSLSSASPSKATKS"

# — paper PMC9166816, “RNF219 regulates CCR4-NOT function in mRNA translation and deadenylation” (Scientific Reports, 2022)
